Measurements as given in article PMC11042868.

What was measured:
[1] = target: HER2 on SK-BR-3 cells (Homo sapiens) (UniProt P04626); test: cell binding, NIR fluorescence; details: live cells, 5% FBS, 1 h, live adherent cells (1e4/well), 0.01-10 uM 5'-IRD800 aptamer in growth medium with 5% FBS, 37 C (or 4 C), buffer salt and pH not stated
[2] = target: HER2 on MDA-MB-453 cells (Homo sapiens) (UniProt P04626); test: cell binding, NIR fluorescence; details: live cells, 5% FBS, 1 h, live adherent cells (1e4/well), 0.01-10 uM 5'-IRD800 aptamer in growth medium with 5% FBS, 37 C (or 4 C), buffer salt and pH not stated

CCGCCCAAACACACGTAAACAGATGAGGAGCCGACACTGGG [HMAP7 (M7)]
Kd [1]: 350 nM | Kd [2]: 260 nM
